According to patent US20230159662A1 (Kyowa Kirin, published 2023):

What follows are binders tested against human CD16a (Val type) stably expressed on NK-92 cells (NK-92/CD16 transfectant) (human, UniProt P08637 17-254) (assay: cell-based or functional assay).
Chain of human CD16a (Val type) stably expressed on NK-92 cells (NK-92/CD16 transfectant) (P08637 17-254 F176V): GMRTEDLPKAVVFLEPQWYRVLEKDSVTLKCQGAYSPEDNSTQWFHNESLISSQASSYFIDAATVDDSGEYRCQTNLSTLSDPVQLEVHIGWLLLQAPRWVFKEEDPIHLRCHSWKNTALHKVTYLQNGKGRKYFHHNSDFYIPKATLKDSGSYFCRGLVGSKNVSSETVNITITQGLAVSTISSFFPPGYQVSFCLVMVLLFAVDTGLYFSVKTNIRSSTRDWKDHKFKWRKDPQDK

Row | relative ADCC activity (AAA = 100) | Binder
1 | 100 relative, AAA at 0.1 µg/mL = 100 | human IgG1 anti-human CCR4 antibody (KM2160), S298A/E333A/K334A (AAA) (antibody) heavy: EVQLVESGGDLMKPGGSLKISCAASGFIFSNYGMSWVRQTPDMRLEWVATISSASTYSYYPDSVKGRFTISRDNAENSLYLQMNSLRSEDTGIYYCGRHSDGNFAFGYWGRGTLVTVSAASTKGPSVFPLAPSSKSTSGGTAALGCLVKDYFPEPVTVSWNSGALTSGVHTFPAVLQSSGLYSLSSVVTVPSSSLGTQTYICNVNHKPSNTKVDKKVEPKSCDKTHTCPPCPAPELLGGPSVFLFPPKPKDTLMISRTPEVTCVVVDVSHEDPEVKFNWYVDGVEVHNAKTKPREEQYNATYRVVSVLTVLHQDWLNGKEYKCKVSNKALPAPIAATISKAKGQPREPQVYTLPPSRDELTKNQVSLTCLVKGFYPSDIAVEWESNGQPENNYKTTPPVLDSDGSFFLYSKLTVDKSRWQQGNVFSCSVMHEALHNHYTQKSLSLSPGK light: DVLMTQTPLSLPVSLGDQASISCRSSRNIVHINGDTYLEWYLQRPGQSPKLLIYKVSNRFSGVPDRFSGSGSGTDFTLKISRVEAEDLGVYYCFQGSLLPWTFGGGTRLEIRRTVAAPSVFIFPPSDEQLKSGTASVVCLLNNFYPREAKVQWKVDNALQSGNSQESVTEQDSKDSTYSLSSTLTLSKADYEKHKVYACEVTHQGLSSPVTKSFNRGEC
2 | 179 relative, AAA at 0.1 µg/mL = 100 | human IgG1 anti-human CCR4 antibody (KM2160), S239D/K326T (antibody) heavy: not shown light: DVLMTQTPLSLPVSLGDQASISCRSSRNIVHINGDTYLEWYLQRPGQSPKLLIYKVSNRFSGVPDRFSGSGSGTDFTLKISRVEAEDLGVYYCFQGSLLPWTFGGGTRLEIRRTVAAPSVFIFPPSDEQLKSGTASVVCLLNNFYPREAKVQWKVDNALQSGNSQESVTEQDSKDSTYSLSSTLTLSKADYEKHKVYACEVTHQGLSSPVTKSFNRGEC
3 | 160 relative, AAA at 0.1 µg/mL = 100 | human IgG1 anti-human CCR4 antibody (KM2160), S298A/E333A/K334A (AAA)/P247L (antibody) heavy: EVQLVESGGDLMKPGGSLKISCAASGFIFSNYGMSWVRQTPDMRLEWVATISSASTYSYYPDSVKGRFTISRDNAENSLYLQMNSLRSEDTGIYYCGRHSDGNFAFGYWGRGTLVTVSAASTKGPSVFPLAPSSKSTSGGTAALGCLVKDYFPEPVTVSWNSGALTSGVHTFPAVLQSSGLYSLSSVVTVPSSSLGTQTYICNVNHKPSNTKVDKKVEPKSCDKTHTCPPCPAPELLGGPSVFLFPPKLKDTLMISRTPEVTCVVVDVSHEDPEVKFNWYVDGVEVHNAKTKPREEQYNATYRVVSVLTVLHQDWLNGKEYKCKVSNKALPAPIAATISKAKGQPREPQVYTLPPSRDELTKNQVSLTCLVKGFYPSDIAVEWESNGQPENNYKTTPPVLDSDGSFFLYSKLTVDKSRWQQGNVFSCSVMHEALHNHYTQKSLSLSPGK light: DVLMTQTPLSLPVSLGDQASISCRSSRNIVHINGDTYLEWYLQRPGQSPKLLIYKVSNRFSGVPDRFSGSGSGTDFTLKISRVEAEDLGVYYCFQGSLLPWTFGGGTRLEIRRTVAAPSVFIFPPSDEQLKSGTASVVCLLNNFYPREAKVQWKVDNALQSGNSQESVTEQDSKDSTYSLSSTLTLSKADYEKHKVYACEVTHQGLSSPVTKSFNRGEC
4 | 201 relative, AAA at 0.1 µg/mL = 100 | human IgG1 anti-human CCR4 antibody (KM2160), S239D/I332E (DE) (antibody) heavy: not shown light: DVLMTQTPLSLPVSLGDQASISCRSSRNIVHINGDTYLEWYLQRPGQSPKLLIYKVSNRFSGVPDRFSGSGSGTDFTLKISRVEAEDLGVYYCFQGSLLPWTFGGGTRLEIRRTVAAPSVFIFPPSDEQLKSGTASVVCLLNNFYPREAKVQWKVDNALQSGNSQESVTEQDSKDSTYSLSSTLTLSKADYEKHKVYACEVTHQGLSSPVTKSFNRGEC
5 | 161 relative, AAA at 0.1 µg/mL = 100 | human IgG1 anti-human CCR4 antibody (KM2160), S239D/A330F (antibody) heavy: not shown light: DVLMTQTPLSLPVSLGDQASISCRSSRNIVHINGDTYLEWYLQRPGQSPKLLIYKVSNRFSGVPDRFSGSGSGTDFTLKISRVEAEDLGVYYCFQGSLLPWTFGGGTRLEIRRTVAAPSVFIFPPSDEQLKSGTASVVCLLNNFYPREAKVQWKVDNALQSGNSQESVTEQDSKDSTYSLSSTLTLSKADYEKHKVYACEVTHQGLSSPVTKSFNRGEC
6 | 136 relative, AAA at 0.1 µg/mL = 100 | human IgG1 anti-human CCR4 antibody (KM2160), S298A/E333A/K334A (AAA)/K326T (antibody) heavy: EVQLVESGGDLMKPGGSLKISCAASGFIFSNYGMSWVRQTPDMRLEWVATISSASTYSYYPDSVKGRFTISRDNAENSLYLQMNSLRSEDTGIYYCGRHSDGNFAFGYWGRGTLVTVSAASTKGPSVFPLAPSSKSTSGGTAALGCLVKDYFPEPVTVSWNSGALTSGVHTFPAVLQSSGLYSLSSVVTVPSSSLGTQTYICNVNHKPSNTKVDKKVEPKSCDKTHTCPPCPAPELLGGPSVFLFPPKPKDTLMISRTPEVTCVVVDVSHEDPEVKFNWYVDGVEVHNAKTKPREEQYNATYRVVSVLTVLHQDWLNGKEYKCKVSNTALPAPIAATISKAKGQPREPQVYTLPPSRDELTKNQVSLTCLVKGFYPSDIAVEWESNGQPENNYKTTPPVLDSDGSFFLYSKLTVDKSRWQQGNVFSCSVMHEALHNHYTQKSLSLSPGK light: DVLMTQTPLSLPVSLGDQASISCRSSRNIVHINGDTYLEWYLQRPGQSPKLLIYKVSNRFSGVPDRFSGSGSGTDFTLKISRVEAEDLGVYYCFQGSLLPWTFGGGTRLEIRRTVAAPSVFIFPPSDEQLKSGTASVVCLLNNFYPREAKVQWKVDNALQSGNSQESVTEQDSKDSTYSLSSTLTLSKADYEKHKVYACEVTHQGLSSPVTKSFNRGEC
7 | 164 relative, AAA at 0.1 µg/mL = 100 | human IgG1 anti-human CCR4 antibody (KM2160), S298A/E333A/K334A (AAA)/H268E (antibody) heavy: EVQLVESGGDLMKPGGSLKISCAASGFIFSNYGMSWVRQTPDMRLEWVATISSASTYSYYPDSVKGRFTISRDNAENSLYLQMNSLRSEDTGIYYCGRHSDGNFAFGYWGRGTLVTVSAASTKGPSVFPLAPSSKSTSGGTAALGCLVKDYFPEPVTVSWNSGALTSGVHTFPAVLQSSGLYSLSSVVTVPSSSLGTQTYICNVNHKPSNTKVDKKVEPKSCDKTHTCPPCPAPELLGGPSVFLFPPKPKDTLMISRTPEVTCVVVDVSEEDPEVKFNWYVDGVEVHNAKTKPREEQYNATYRVVSVLTVLHQDWLNGKEYKCKVSNKALPAPIAATISKAKGQPREPQVYTLPPSRDELTKNQVSLTCLVKGFYPSDIAVEWESNGQPENNYKTTPPVLDSDGSFFLYSKLTVDKSRWQQGNVFSCSVMHEALHNHYTQKSLSLSPGK light: DVLMTQTPLSLPVSLGDQASISCRSSRNIVHINGDTYLEWYLQRPGQSPKLLIYKVSNRFSGVPDRFSGSGSGTDFTLKISRVEAEDLGVYYCFQGSLLPWTFGGGTRLEIRRTVAAPSVFIFPPSDEQLKSGTASVVCLLNNFYPREAKVQWKVDNALQSGNSQESVTEQDSKDSTYSLSSTLTLSKADYEKHKVYACEVTHQGLSSPVTKSFNRGEC
8 | 125 relative, AAA at 0.1 µg/mL = 100 | human IgG1 anti-human CCR4 antibody (KM2160), S298A/E333A/K334A (AAA)/R293P (antibody) heavy: EVQLVESGGDLMKPGGSLKISCAASGFIFSNYGMSWVRQTPDMRLEWVATISSASTYSYYPDSVKGRFTISRDNAENSLYLQMNSLRSEDTGIYYCGRHSDGNFAFGYWGRGTLVTVSAASTKGPSVFPLAPSSKSTSGGTAALGCLVKDYFPEPVTVSWNSGALTSGVHTFPAVLQSSGLYSLSSVVTVPSSSLGTQTYICNVNHKPSNTKVDKKVEPKSCDKTHTCPPCPAPELLGGPSVFLFPPKPKDTLMISRTPEVTCVVVDVSHEDPEVKFNWYVDGVEVHNAKTKPPEEQYNATYRVVSVLTVLHQDWLNGKEYKCKVSNKALPAPIAATISKAKGQPREPQVYTLPPSRDELTKNQVSLTCLVKGFYPSDIAVEWESNGQPENNYKTTPPVLDSDGSFFLYSKLTVDKSRWQQGNVFSCSVMHEALHNHYTQKSLSLSPGK light: DVLMTQTPLSLPVSLGDQASISCRSSRNIVHINGDTYLEWYLQRPGQSPKLLIYKVSNRFSGVPDRFSGSGSGTDFTLKISRVEAEDLGVYYCFQGSLLPWTFGGGTRLEIRRTVAAPSVFIFPPSDEQLKSGTASVVCLLNNFYPREAKVQWKVDNALQSGNSQESVTEQDSKDSTYSLSSTLTLSKADYEKHKVYACEVTHQGLSSPVTKSFNRGEC
